Source: US20130039923A1 (Novo Nordisk, published 2013)
Ends that are not written are not given here.

What was measured:
[1] = molecular target: T1, recombinant human interleukin-20 (human, UniProt Q9NYY1 25-176); experiment: SPR (Biacore 3000/T100), antibody amine-coupled on CM5, recombinant hIL20 injected 3.125-100 nM, 1:1 Langmuir, 25 C; antibody from HEK293
T1 construct: also called hIL20; IL20
T1 sequence: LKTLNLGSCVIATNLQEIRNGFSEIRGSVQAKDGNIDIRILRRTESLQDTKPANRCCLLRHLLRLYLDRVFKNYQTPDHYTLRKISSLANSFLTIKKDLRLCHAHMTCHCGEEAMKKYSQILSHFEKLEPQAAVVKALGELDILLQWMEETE
Description: Affinity studies were performed using a direct binding procedure, with the monoclonal antibody covalently coupled via free amine groups to the carboxymethylated dextrane membrane (CM5) on the sensor chip surface. […] The kinetic parameters for the interaction could be calculated using a 1:1 interaction Langmuir fitting model.
The purified monoclonal antibodies were immobilized in individual flow cells on a CM5 type sensor chip. Immobilizations were performed using a standard amine coupling procedure, aiming for an immobilization level of 1000 Resonance Units (RU). The antibodies were diluted to 5 μg/ml in 10 mM NaAc pH 5.0. […] Association (injection) was 3 min., followed by a 30 min. dissociation (wash) period. Flow rate was 30 μl/min. Experiments were performed at 25° C. Regeneration of the surface following each cycle, was accomplished by injection of 30 sec. pulse of 10 mM Glycin-HCl pH 1.8, at a 30 ul/min flow rate. Detection in all flow cells simultaneously. Flow cell No. 1 contained no immobilized antibody, and was used for subtraction of background and bulk. […] Data was inspected for mass-transport limitations prior to calculation of the kinetic parameters. Experiments were performed on Biacore 3000 and T100 instruments. Data was evaluated using Biaeval 4.1 and Biacore T100 evaluation software.

[2] = molecular target: T2, Peptide no. 3 (Figures 7A, 7B) (N-terminus acylated); experiment: array of terminally truncated, acylated hIL20 peptides on cellulose; fluorescein-labelled antibody; fluorescence as OD
T2 construct: peptide array on cellulose
T2 peptide: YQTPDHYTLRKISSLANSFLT
Description: (§1) The screenings were done using fluorescence labelled antibodies. The labelling was done by gel-filtering the antibody stock against 1% NaHCO3, using NAP5 column (GE Healthcare according the manual from manufacturer. This was followed by adding 25 mole equivalents of 5(6)-carboxyfluorescein N-hydroxysuccinimide ester (Sigma, C1609) dissolved in DMSO. The coupling was allowed to continue for 2 hours followed by a gelfiltration against TRIS washing buffer (50 mM TRIS, pH=7.4, 0.15M NaCl, 0.1 M ArgHCl, 0.05% Tween 20) in order to removed uncoupled fluorescein.
(§2) Screening of arrays were done by adding 10 μl of antibody to 30 ml incubation buffer (0.5% BSA, 50 mM TRIS, pH=7.4, 0.15M NaCl, 0.1 M ArgHCl, 0.05% Tween 20). The sheets were incubated for 1-2 hours, followed by washing five times with washing buffer. […] The fluorescence intensity were measured and transformed into digits that were exported to Prism 5 (Graph Pad Software, USA) for further analysis.

[3] = molecular target: T3, Peptide no. 14 (Figures 7A, 7B) (N-terminus acylated); experiment: as above
T3 construct: peptide array on cellulose
T3 peptide: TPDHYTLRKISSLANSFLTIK
Description: as §1, §2

[4] = molecular target: T4, Peptide no. 13 (Figures 7A, 7B) (N-terminus acylated); experiment: as above
T4 construct: peptide array on cellulose
T4 peptide: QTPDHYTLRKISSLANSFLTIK
Description: as §1, §2

[5] = molecular target: T5, Peptide no. 1 (Figures 7A, 7B) (N-terminus acylated); experiment: as above
T5 construct: peptide array on cellulose
T5 peptide: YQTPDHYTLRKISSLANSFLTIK
Description: as §1, §2

[6] = molecular target: T6, Peptide no. 4 (Figures 7A, 7B) (N-terminus acylated); experiment: as above
T6 construct: peptide array on cellulose
T6 peptide: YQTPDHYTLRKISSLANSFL
Description: as §1, §2

[7] = molecular target: T7, Peptide no. 7 (Figures 7A, 7B) (also: N-terminus acylated); experiment: as above
T7 construct: peptide array on cellulose
T7 peptide: YQTPDHYTLRKISSLAN
Description: as §1, §2

[8] = molecular target: T8, Peptide no. 2 (Figures 7A, 7B) (N-terminus acylated); experiment: as above
T8 construct: peptide array on cellulose
T8 peptide: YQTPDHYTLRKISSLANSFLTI
Description: as §1, §2

[9] = molecular target: T9, Peptide no. 6 (Figures 7A, 7B) (also: N-terminus acylated); experiment: as above
T9 construct: peptide array on cellulose
T9 peptide: YQTPDHYTLRKISSLANS
Description: as §1, §2

[10] = molecular target: T10, Peptide no. 16 (Figures 7A, 7B) (also: N-terminus acylated); experiment: as above
T10 construct: peptide array on cellulose
T10 peptide: DHYTLRKISSLANSFLTIK
Description: as §1, §2

[11] = molecular target: T11, Peptide no. 5 (Figures 7A, 7B) (also: N-terminus acylated); experiment: as above
T11 construct: peptide array on cellulose
T11 peptide: YQTPDHYTLRKISSLANSF
Description: as §1, §2

[12] = molecular target: T12, Peptide no. 17 (Figures 7A, 7B) (also: N-terminus acylated); experiment: as above
T12 construct: peptide array on cellulose
T12 peptide: HYTLRKISSLANSFLTIK
Description: as §1, §2

[13] = molecular target: T13, Peptide no. 15 (Figures 7A, 7B) (N-terminus acylated); experiment: as above
T13 construct: peptide array on cellulose
T13 peptide: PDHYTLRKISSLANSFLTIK
Description: as §1, §2

[14] = molecular target: T14, Peptide no. 86 (Figure 6A); experiment: 18mer hIL20 peptide array on cellulose, 4 residue walk; fluorescein-labelled antibody; fluorescence as OD
T14 construct: also called Peptide no
T14 peptide: NYQTPDHYTLRKISSLAN
Description: as §1, §2

[15] = molecular target: T15, Peptide no. 87 (Figure 6A); experiment: as above
T15 construct: also called Peptide no
T15 peptide: PDHYTLRKISSLANSFLT
Description: as §1, §2

[16] = molecular target: T16, Peptide no. 53 (Figure 8A); experiment: Ala-scan peptide array of hIL20 74-96 on cellulose; fluorescein-labelled antibody; fluorescence as OD
T16 construct: Ala-scan peptide on the array; also called Peptide no; S87A
T16 peptide: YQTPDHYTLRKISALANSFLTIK
Description: as §1, §2

[17] = molecular target: T17, Peptide no. 59 (Figure 8A); experiment: as above
T17 construct: Ala-scan peptide on the array; also called Peptide no; T94A
T17 peptide: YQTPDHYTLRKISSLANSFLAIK
Description: as §1, §2

B1: human anti-hIL20 monoclonal antibody 15D2 (antibody, V domains shown)
VH: QVQLVQSGAEVKRPGASVKVSCKASGYTFTNDIIHWVRQAPGQRLEWMGWINAGYGNTQYSQNFQDRVSITRDTSASTAYMELISLRSEDTAVYYCAREPLWFGESSPHDYYGMDVWGQGTTVTVSS
VL: AIQLTQSPSSLSASVGDRVTITCRASQGISSALAWYQQKPGKAPKLLIYDASSLESGVPSRFSGSGSGTDFTLTISSLQPEDFATYYCQQFNSYPLTFGGGTKVEIKR
notes: also called 15D2-wt; 15D2 wild-type
- Kd [1]: 0.032 nM
- koff [1]: 6.3e-05 s⁻¹
- kon [1]: 1.9e+06 M⁻¹ s⁻¹
- binding result [2]: binds
- binding result [3]: binds
- binding result [4]: binds
- binding result [5]: binds
- binding result [6]: binds
- binding result [7]: binds
- binding result [8]: binds
- binding result [9]: binds
- binding result [10]: binds
- binding result [11]: binds
- binding result [12]: binds
- binding result [13]: binds
- binding result [14]: binds
- binding result [15]: binds
- binding result [16]: binds
- binding result [17]: binds
